For data set [1], the system named is L929 cells (mouse fibroblasts) bearing the TNFR1 receptor. In words: Cytotoxicity on L929 cells (Cytotox kit, Promega). It is filed as cell-based. As for the experimental part:
L929 cells (mouse fibroblasts) were cultured in DMEM medium (PanEco, RA) supplemented with 10% fetal bovine serum (HyClone, United States). The culture was obtained from the bank of cell lines of the Blokhin Russian Cancer Research Center of the Russian Academy of Medical Sciences. To measure cytotoxicity, proteins and protein complexes were added to the L929 culture at a concentration of 1 nM, unless a different concentration was specified, and incubated for 3 or 20 h. Cytotoxicity was measured using a Cytotox kit (Promega, United States) according to the manufacturer’s method. To inhibit cytotoxicity, blocking antibodies to TNFR1 were used at a concentration of 10 μg/mL (Invitrogen, United States). Data from 5 different experiments are used.

Data set [2] has as its target T1, HspBP1 (Homo sapiens, UniProt Q9NZL4).
T1 construct: made in house
T1 sequence (Q9NZL4 1-359): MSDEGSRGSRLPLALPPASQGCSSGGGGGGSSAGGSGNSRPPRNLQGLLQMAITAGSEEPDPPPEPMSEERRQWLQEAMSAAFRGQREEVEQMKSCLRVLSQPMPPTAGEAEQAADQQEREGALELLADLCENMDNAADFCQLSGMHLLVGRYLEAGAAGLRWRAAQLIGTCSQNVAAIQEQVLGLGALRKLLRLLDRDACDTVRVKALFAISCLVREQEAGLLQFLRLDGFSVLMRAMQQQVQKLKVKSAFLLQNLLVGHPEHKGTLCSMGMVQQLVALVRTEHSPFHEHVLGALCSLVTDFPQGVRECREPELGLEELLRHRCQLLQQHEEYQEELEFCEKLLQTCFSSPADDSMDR
Description: Microscale thermophoresis, binding to Alexa Fluor 633-labeled HspBP1. To be noted: labeled HspBP1 200 nM, 20 min incubation, room temperature, 16 concentrations, triplicate; read-out: dissociation constant of the complex with HspBP1, thermophoresis. The protocol:
Purified HspBP1 was fluorescently labeled using Alexa Fluor 633 (Eugene, OR, United States) according to the manufacturer’s instructions. HspBP1 (200 nM) was incubated for 20 min with each compound in the dark at room temperature at 16 different concentrations obtained by serial dilution starting with the highest soluble concentration. Samples were loaded into glass capillaries (Monolith NT Capillaries) and analyzed by thermophoresis using a Monolith NT 115 nanotemperature instrument (IR laser power 10%). The signal quality was monitored with a NanoTemper Monolith instrument to detect possible ligand autofluorescence, precipitation, aggregation, or ligand-induced changes in photobleaching rate. Experiments were performed in triplicate and processed using affinity analysis software (MO Control v.1.6.1, Nano-Temper).
A general note: MST reads how a fluorescent partner responds to local heating, with and without ligand.

Data set [3] concerns the target Hsp70. As to conditions: shown previously; read-out: dissociation constant for Hsp70; cited from earlier work. The protocol: For 17.1–HspBP1, equal to 3.91 nM is also close to these values. […] It can be assumed that the lack of cytotoxic activity inTag7–HspBP1 is associated with its dissociation upon interaction with cells. Thus, a correlation between the affinity of protei ...

These results are taken from paper PMC11021269, “HspBP1 in Complex with the Peptide of the Innate Immunity Protein Tag7 is Able to Lyse Tumor Cells Carrying TNFR1 Receptor” (Doklady. Biochemistry and Biophysics, 2024).

As for “Tag7–HspBP1 complex: complex of the Tag7 protein with the HspBP1 protein”, the “cytotoxic activity (time not given)” value in data set [1] is “does not have cytotoxic activity”. For the same molecule, in data set [1] (complexes at 1 nM, 3 h (apoptosis), 5 experiments), the “cytotoxic activity after 3 h of incubation” value is reported as “did not have cytotoxic activity”. The “cytotoxic activity after 20 h of incubation” value in data set [1] (complexes at 1 nM, 20 h (necroptosis), 5 experiments) is recorded as “did not have cytotoxic activity”.

B1: Tag7: innate immunity protein Tag7, a ligand for the TNFR1 receptor (protein, UniProt O75594 1-196, looked up)
chain: MSRRSMLLAWALPSLLRLGAAQETEDPACCSPIVPRNEWKALASECAQHLSLPLRYVVVSHTAGSSCNTPASCQQQARNVQHYHMKTLGWCDVGYNFLIGEDGLVYEGRGWNFTGAHSGHLWNPMSIGISFMGNYMDRVPTPQAIRAAQGLLACGVAQGALRSNYVLKGHRDVQRTLSPGNQLYHLIQNWPHYRSP
modifications: full-length
notes: innate immunity protein Tag7, a ligand for the TNFR1 receptor
For B1, the Kd in data set [2] is 328 nM; in data set [3] it was 1.73 nM.

B2: HspBP1: recombinant co-chaperone that regulates the ATPase activity of Hsp70 (protein, UniProt Q9NZL4 1-359, looked up)
Hsp70-binding protein 1: T1 sequence (Q9NZL4 1-359)
Take B2: the “effect on the cytotoxic activity of the Tag7–Hsp70 complex” value in data set [1] (increasing concentration of HspBP1, Fig. 1a) is recorded as “inhibits the cytotoxic activity of the Tag7–Hsp70 complex in a dose-dependent manner”.
